Reference: PMC5946489, “Inactivation of the tight junction gene CLDN11 by aberrant hypermethylation modulates tubulins polymerization and promotes cell migration in nasopharyngeal carcinoma”

Target: GST-GATA1 (UniProt P15976 1-413)
Experiment: EMSA; GATA1 antibody used for supershift; Pull-down: probes immobilised on M-280 beads in 5 mM Tris-HCl pH 7.5, 0.5 mM EDTA, 1 M NaCl; 100 ug nuclear extract; washes in binding buffer (composition not given) with 0.5% NP40. EMSA as described previously (ref. 9); temperature not stated
Settings: protein: commercial; tags: GST; label: 5'-biotin; blunt

Chain of GST-GATA1 (P15976 whole entry): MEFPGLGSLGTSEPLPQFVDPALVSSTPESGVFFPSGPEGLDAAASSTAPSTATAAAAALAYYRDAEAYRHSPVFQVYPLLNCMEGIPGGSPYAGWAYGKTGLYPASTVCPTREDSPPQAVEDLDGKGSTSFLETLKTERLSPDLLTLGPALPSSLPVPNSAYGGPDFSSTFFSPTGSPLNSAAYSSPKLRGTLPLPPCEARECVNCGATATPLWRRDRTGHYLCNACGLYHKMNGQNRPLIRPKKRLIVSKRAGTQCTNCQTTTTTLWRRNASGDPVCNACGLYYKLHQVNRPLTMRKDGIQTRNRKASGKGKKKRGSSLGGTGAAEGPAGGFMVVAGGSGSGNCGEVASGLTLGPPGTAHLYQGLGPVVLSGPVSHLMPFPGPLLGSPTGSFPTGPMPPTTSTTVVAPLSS

B1: GATA1/2 WT probe (dsDNA)
DNA 1: CTGCCGCCGATTGGTGCTCGC
DNA 2: GCGAGCACCAATCGGCGGCAG
binding result: binds
